Data: US20250066476A1 (TENEOONE, published 2025)
Numbering of substitutions follows the chain as printed.

B1: anti-PSMA heavy-chain antibody clone ID 325748 (antibody, V domains shown)
VH: QVQLVESGGGVVQPGRSLRLSCAASGFSFSSYGMHWVRQAPGKGLEGVAVIWYDGSNRYYADSVKGRFTISRDNSKNTLYLQMNSLRAEDTAVYYCAREPRIGYYYESSGYYSLDYRGQGTLVTVSS
notes: heavy chain-only antibody (UniAb/HCAb)
B2: anti-PSMA heavy-chain antibody clone ID 325932 (antibody, V domains shown)
VH: B1 VH
notes: as for B1
B3: anti-PSMA heavy-chain antibody clone ID 345497 (antibody, V domains shown)
VH: B1 VH with S31R
notes: heavy chain-only antibody (UniAb/HCAb); also called HCAb 345497
B4: anti-PSMA heavy-chain antibody clone ID 345461 (antibody, V domains shown)
VH: B1 VH with S30T
notes: as for B1
B5: anti-PSMA heavy-chain antibody clone ID 345493 (antibody, V domains shown)
VH: B1 VH with S31R, G47W
notes: as for B1
B6: anti-PSMA heavy-chain antibody clone ID 345480 (antibody, V domains shown)
VH: B1 VH with G47W
notes: as for B1
B7: anti-PSMA heavy-chain antibody clone ID 345510 (antibody, V domains shown)
VH: B1 VH with G47W, R58K, L79M
notes: as for B1
B8: anti-PSMA heavy-chain antibody clone ID 345505 (antibody, V domains shown)
VH: B1 VH with S28T, S30I
notes: as for B1
B9: anti-PSMA heavy-chain antibody clone ID 345482 (antibody, V domains shown)
VH: B1 VH with N74S
notes: as for B1
B10: anti-PSMA heavy-chain antibody clone ID 345490 (antibody, V domains shown)
VH: B1 VH with V11L, Q13K, R16G
notes: as for B1
B11: anti-PSMA heavy-chain antibody clone ID 345508 (antibody, V domains shown)
VH: B1 VH with L45P, G47W
notes: as for B1
B12: anti-PSMA heavy-chain antibody clone ID 345444 (antibody, V domains shown)
VH: B1 VH with S28T
notes: as for B1
B13: anti-PSMA heavy-chain antibody clone ID 326084 (antibody, V domains shown)
VH: B1 VH with E107D
notes: as for B1
B14: anti-PSMA heavy-chain antibody clone ID 345436 (antibody, V domains shown)
VH: B1 VH with S31R, R58K
notes: as for B1
B15: anti-PSMA heavy-chain antibody clone ID 345443 (antibody, V domains shown)
VH: B1 VH with Y80F
notes: as for B1
B16: anti-PSMA heavy-chain antibody clone ID 326116 (antibody, V domains shown)
VH: B1 VH with S31R, W52S, R58K, N74Y, E107D, Y112D
notes: as for B1
B17: anti-PSMA heavy-chain antibody clone ID 325836 (antibody, V domains shown)
VH: B1 VH with S30R, G47W, R58K, N74Y, E107D, Y112D
notes: as for B1
B18: anti-PSMA heavy-chain antibody clone ID 325940 (antibody, V domains shown)
VH: B1 VH with S28I, S30R, L45P, G47W, R58K
notes: as for B1
B19: anti-PSMA heavy-chain antibody clone ID 326028 (antibody, V domains shown)
VH: B1 VH with S30R, G47W, W52S, R58K, N74Y, E107D, Y112D
notes: as for B1
B20: anti-PSMA heavy-chain antibody clone ID 326087 (antibody, V domains shown)
VH: B1 VH with S28I, S30R, L45P, G47W, R58K, E107D, Y112D
notes: as for B1
B21: anti-PSMA heavy-chain antibody clone ID 326027 (antibody, V domains shown)
VH: B1 VH with S30R, G47W, R58K, E107D, Y112D
notes: as for B1
B22: anti-PSMA heavy-chain antibody clone ID 345447 (antibody, V domains shown)
VH: B1 VH with W52S
notes: as for B1
B23: anti-PSMA heavy-chain antibody clone ID 345463 (antibody, V domains shown)
VH: B1 VH with S28I, S30R, L45P, G47W, R58K
notes: as for B1
B24: anti-PSMA heavy-chain antibody clone ID 345485 (antibody, V domains shown)
VH: B1 VH with S30R, G47W, R58K, L79M
notes: as for B1
B25: anti-PSMA heavy-chain antibody clone ID 325867 (antibody, V domains shown)
VH: B1 VH with S30R, G47W, R58K, N74Y, Y112D
notes: as for B1
B26: anti-PSMA heavy-chain antibody clone ID 325742 (antibody, V domains shown)
VH: B1 VH with G47W, R58K, N74Y, Y112D
notes: as for B1
B27: anti-PSMA heavy-chain antibody clone ID 326029 (antibody, V domains shown)
VH: B1 VH with S31R, G47W, W52S, R58K, I102V, S108T
notes: as for B1
B28: anti-PSMA heavy-chain antibody clone ID 345421 (antibody, V domains shown)
VH: B1 VH with G8V
notes: as for B1
B29: anti-PSMA heavy-chain antibody clone ID 345509 (antibody, V domains shown)
VH: B1 VH with V11L, R16G, R58K, L79M
notes: as for B1
B30: anti-PSMA heavy-chain antibody clone ID 345438 (antibody, V domains shown)
VH: B1 VH with L45P, G47W, R58K
notes: as for B1
B31: anti-PSMA heavy-chain antibody clone ID 346172 (antibody, V domains shown)
VH: QLQLQESGPGLVKPSETLSLTCTVSGGSISSSSYYWGWIRQPPGKGLEWIGSIDYSGYTYYNPSLKSRVTISVDTSKNQFSLKLSSVTAADTAVYNCARHKAATADFDYRGQGTLVTVSS
notes: as for B1
B32: anti-PSMA heavy-chain antibody clone ID 346165 (antibody, V domains shown)
VH: B31 VH with I53V, K66Q
notes: as for B1
B33: anti-PSMA heavy-chain antibody clone ID 325920 (antibody, V domains shown)
VH: B31 VH with K66Q
notes: as for B1
B34: anti-PSMA heavy-chain antibody clone ID 346181 (antibody, V domains shown)
VH: B31 VH with S33N, Y35F, P42S
notes: as for B1
B35: anti-PSMA heavy-chain antibody clone ID 326109 (antibody, V domains shown)
VH: B31 VH with S32N, P42S, I50L, D54Y, Y55D, Y58S, Y60H, T70I, V73G, N96Y
notes: as for B1
B36: anti-BCMA heavy chain antibody clone ID 308837 (antibody, V domains shown)
VH: EVQLLESGGGLVQPGGSLRLSCAASGFTVSSYGMSWVRQAPGKGPEWVSGIRGSDGSTYYADSVKGRFTISRDNATNTLYLQMNSLRAEDTAVYYCAKQGGNDGPFDYRGQGTLVTVSS
notes: heavy chain-only antibody (UniAb)
B37: anti-BCMA heavy chain antibody clone ID 308902 (antibody, V domains shown)
VH: B36 VH with A75S, T76K, G101E, Y108H
notes: as for B36
B38: anti-BCMA heavy chain antibody clone ID 308912 (antibody, V domains shown)
VH: B36 VH with A40P, P45M, T76K
notes: as for B36
B39: anti-BCMA heavy chain antibody clone ID 308636 (antibody, V domains shown)
VH: B36 VH with L4V, A40P, P45M, Y59F
notes: as for B36
B40: anti-BCMA heavy chain antibody clone ID 308635 (antibody, V domains shown)
VH: B36 VH with P14A, A75S, T76K, Y95H, G101E
notes: as for B36
B41: anti-BCMA heavy chain antibody clone ID 308806 (antibody, V domains shown)
VH: B36 VH with V29I, P45V, S57T, N74S, A75S, T76R, Y108H
notes: as for B36

molecular target: T1, human PSMA (Prostate Specific Membrane Antigen, Glutamate Carboxypeptidase II) (human, UniProt Q04609 1-750); assay: flow cytometry on LNCaP cells
T1 construct: whole, on cells; the cell line is named under assay; also called FOLH1
T1 sequence (Q04609 whole entry): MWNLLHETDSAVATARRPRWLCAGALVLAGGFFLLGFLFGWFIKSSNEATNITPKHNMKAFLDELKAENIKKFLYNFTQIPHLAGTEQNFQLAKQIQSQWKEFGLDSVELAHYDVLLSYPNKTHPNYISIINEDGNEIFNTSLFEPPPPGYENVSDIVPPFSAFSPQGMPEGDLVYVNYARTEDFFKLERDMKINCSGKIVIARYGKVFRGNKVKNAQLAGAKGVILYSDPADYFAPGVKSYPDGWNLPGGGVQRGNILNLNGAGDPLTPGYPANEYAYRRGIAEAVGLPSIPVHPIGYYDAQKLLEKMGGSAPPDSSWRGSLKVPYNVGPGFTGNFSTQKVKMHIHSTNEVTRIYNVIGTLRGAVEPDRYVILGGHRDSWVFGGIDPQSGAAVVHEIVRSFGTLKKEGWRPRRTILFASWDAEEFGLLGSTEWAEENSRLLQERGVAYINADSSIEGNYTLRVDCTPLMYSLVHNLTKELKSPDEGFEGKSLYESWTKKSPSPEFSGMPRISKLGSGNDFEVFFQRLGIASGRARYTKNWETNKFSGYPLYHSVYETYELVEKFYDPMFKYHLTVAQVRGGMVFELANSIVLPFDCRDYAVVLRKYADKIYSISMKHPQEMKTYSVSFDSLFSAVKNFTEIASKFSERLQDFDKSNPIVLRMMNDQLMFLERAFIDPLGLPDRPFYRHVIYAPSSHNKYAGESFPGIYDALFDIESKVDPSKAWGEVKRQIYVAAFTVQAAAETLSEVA
Method: Briefly, 50,000 target cells were stained with a dilution series of purified UniAbs™ for 30 minutes at 4° C. Following incubation, the cells were washed twice with flow cytometry buffer (1×PBS, 1% BSA, 0.1% NaN₃) and stained with goat F(ab′)₂ anti-human IgG conjugated to R-phycoerythrin (PE) (Southern Biotech, cat. #2042-09) to detect cell-bound antibodies. After a 20-minute incubation at 4° C., the cells were washed twice with flow cytometry buffer and the mean fluorescence intensity (MFI) was measured by flow cytometry. The MFI of cells stained with secondary antibody alone were used for determination of background signal and binding of each antibody was converted to fold over background. Binding to cynomolgus PSMA positive cells was determined using the same protocol with the following modifications: the target cells were from Freestyle 293-F cells (ThermoFisher R79007) transiently transfected to express the extracellular domain of cynomolgus PSMA. In some experiments EC50 values were calculated using GraphPad Prism 7.
Column 1 indicates the clone ID of the HCAb. Column 2 indicates binding to LNCaP cells measured as fold over the background MFI signal.

Binder	fold over the background MFI signal
B1	193 fold over background MFI
B2	64 fold over background MFI
B3	112 fold over background MFI
B4	102 fold over background MFI
B5	101 fold over background MFI
B6	47 fold over background MFI
B7	13 fold over background MFI
B8	59 fold over background MFI
B9	80 fold over background MFI
B10	80 fold over background MFI
B11	55 fold over background MFI
B12	23 fold over background MFI
B13	125 fold over background MFI
B14	87 fold over background MFI
B15	84 fold over background MFI
B16	38 fold over background MFI
B17	163 fold over background MFI
B18	169 fold over background MFI

Binder	fold over the background MFI signal
B19	117 fold over background MFI
B20	129 fold over background MFI
B21	138 fold over background MFI
B22	14 fold over background MFI
B23	68 fold over background MFI
B24	71 fold over background MFI
B25	210 fold over background MFI
B26	200 fold over background MFI
B27	109 fold over background MFI
B28	22 fold over background MFI
B29	37 fold over background MFI
B30	13 fold over background MFI
B31	216 fold over background MFI
B32	243 fold over background MFI
B33	282 fold over background MFI
B34	264 fold over background MFI
B35	25 fold over background MFI

molecular target: T2, human B-cell maturation antigen (BCMA) (human, UniProt Q02223 1-54, limits assumed); assay: ELISA protein and cell-binding assays
T2 construct: also called CD269; TNFRSF17
T2 sequence (looked up): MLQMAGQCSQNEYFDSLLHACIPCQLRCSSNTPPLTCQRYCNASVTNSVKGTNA

Binder	binding result
B36	binds
B37	binds
B38	binds
B39	binds
B40	binds
B41	binds
